Measurements reported in patent US20050244448A1.

Target: total elastase activity of relaxin-stimulated cultured SUI vaginal fibroblasts
Experiment: cell-based or functional assay

inhibition of total elastase activity: 98%
Substance: alpha-1 antitrypsin (from UniProt P01009 25-418)
